The nature of series [1]: folding stability dG unfold from chymotrypsin proteolysis; higher = more stable. The procedure, abridged:
(§1)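 Mini-proteins designed to be under 80 residues and free of cysteine were carried in a PA-tagged cDNA display construct and digested with trypsin and with chymotrypsin. Each protease was applied at 11 threefold-diluted concentrations, alongside a no-protease condition, before sequencing. K50 came from Bayesian fitting of the sequencing counts, and unfolding free energy was obtained by comparing it with a sequence-predicted unfolded-state K50 and a shared folded-state K50, for each protease separately or for both together. Designs were retained only if their AlphaFold2 dimer inter-PAE exceeded 15.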

The nature of series [2]: folding stability dG unfold from trypsin proteolysis; higher = more stable. The procedure, abridged:
as §1

Series [3] in a line: folding stability dG unfold (combined trypsin and chymotrypsin); higher = more stable. The procedure, abridged: as §1

Experimental findings from the supplement of paper PMC12764529 are described below.

± gives the half width of the 95% confidence interval.

Consider “SAGGSLPLPPGATVETTEVDPANPDRTYKTTTTFTPVPGNTLLATPVVTDPETGTTTTTTTTVPLALGSAGG [r13_268_JUSTAS]”, for which the “folding stability dG unfold” value in series [1] worked out at 0.809 ± 0.15 kcal/mol; in series [2] it was 0.321 ± 0.054 kcal/mol; in series [3], 0.64 ± 0.13 kcal/mol.
Take “SAGGSLPPGQWIFMIQLEIEPPNGNTWPFNIMVPPDNVEEQAKEIADRLRENGLKVKIEITDVMPVSAGGSA [r2_274_TrROS]”: the “folding stability dG unfold” value in series [1] was 3.5 ± 0.083 kcal/mol; in series [2], 2.22 ± 0.13 kcal/mol; in series [3] it was 3.09 ± 0.13 kcal/mol.
Regarding “SAGGSLPPSTVIESEIVIEIEIENNISGIPGKTEKAFIIIKVTVTTDENGNLSSSVEIEIIPAKDLSAGGSA [r2_448_TrMRF]”, the “folding stability dG unfold” value in series [1] amounted to 2.97 ± 0.21 kcal/mol; in series [2], 3.22 ± 0.23 kcal/mol; in series [3] it was 3.26 ± 0.41 kcal/mol.
For the sequence “SAGGSLSNVTPLGTTPVTLPGSTVTITVYKSDTPGVVYVKIEYPETGVEKVRVLSPEELEKVIEELLSAGGS [r8_469_JUSTAS]”, the figures for the “folding stability dG unfold” value in series [1], in series [2] and in series [3] were 3.199 ± 0.025 kcal/mol, 2.69 ± 0.071 kcal/mol and 3.07 ± 0.054 kcal/mol, respectively.
With “SAGGSLVEKVKAIFAEKGIPVNPITTTPTSFTAKTPTGPFTVELPGNSTVTVSPDGTATVTVPPGLSSAGGS [r8_297_JUSTAS]”, the “folding stability dG unfold” value is 2.2 ± 0.066 kcal/mol in series [1], 1.41 ± 0.16 kcal/mol in series [2] and 1.99 ± 0.21 kcal/mol in series [3].
Taken in the same sequence, the figures for “SAGGSLVYRLVLRRGDKVLVVTAPFDSPSDALAAASRLLPGGAELLLEFFDPRTGEPLGTVPFRSVSAGGSA [r2_390_TrMRF]” were 2.06 ± 0.039 kcal/mol, 2.257 ± 0.015 kcal/mol and 2.22 ± 0.034 kcal/mol.
Taken in the same sequence, the figures for “SAGGSMAEPGPMNMTLSFDGIEKEFSVEITVRKRPDGTEVLELRLPDGVPLTLPAAEAAKIVDMSGSAGGSA [r2_297_JUSTAS]” were 0.879 ± 0.036 kcal/mol, 0.549 ± 0.023 kcal/mol and 0.764 ± 0.051 kcal/mol.
For “SAGGSMEEEFAARGATVTIDPEKGVITVTFYEEVTQPDGTPVLRRKGTLTIEVPGNDPSQALAKALEESAGG [r13_924_JUSTAS]”, the entries for the “folding stability dG unfold” value in series [1], in series [2] and in series [3] were 2.1 ± 0.088 kcal/mol, 1.41 ± 0.032 kcal/mol and 1.96 ± 0.12 kcal/mol, respectively.
Take “SAGGSMIEVERDPNDPNRYRARLPVIEENPPEPKLVYVDVYVDPENGLVYARAVTEDGGEAEFRFESAGGSA [r2_428_TrMRF]”: the entries for the “folding stability dG unfold” value in series [1], in series [2] and in series [3] were 1.03 ± 0.16 kcal/mol, 0.448 ± 0.12 kcal/mol and 0.786 ± 0.17 kcal/mol, respectively.
Consider “SAGGSMIPLDNIDTIEIYENPKEGKYEAKIYFPSNGKVYVFPEGLLPEIIESTPKIKEIKVIPVPESAGGSA [r2_159_TrMRF]”, for which the “folding stability dG unfold” value in series [1] was 0.362 ± 0.26 kcal/mol; in series [2], -1.19 ± 0.71 kcal/mol; in series [3] it was -0.0295 ± 0.25 kcal/mol.
Take “SAGGSMITFTVTPDATVEFPDGVTVTLIPGEGKWVATAGEKEIEAPYTPLPDDTYVVTLELPEGIAASAGGS [r16_245_JUSTAS]”: the “folding stability dG unfold” value was -0.101 ± 0.27 kcal/mol in series [1], 0.337 ± 0.046 kcal/mol in series [2] and 0.369 ± 0.13 kcal/mol in series [3].
For “SAGGSMITLTFPAPREVAVPAIEAAAEKHGVTILSVEFDPATGRLTVTVDSSLPEEEVRAMVAAVLASAGGS [r8_338_JUSTAS]” the same measures were 4.47 ± 0.058 kcal/mol, 4.75 ± 0.24 kcal/mol and 4.57 ± 0.075 kcal/mol.
Consider “SAGGSMIVKVTVRVDGKEYERTVEVESLEEALELELPELPEGAEVRIEVVDPETGELIETVTLRVPSAGGSA [r2_390_TrROS_Hall]”, for which the “folding stability dG unfold” value came out at 2.56 ± 0.052 kcal/mol in series [1], 2.3 ± 0.13 kcal/mol in series [2] and 2.46 ± 0.15 kcal/mol in series [3].
Take “SAGGSMKIEKLPDGKTVVIETVDEETNTITRTRFKLDKDGKLVEMEVETITLPAPPPEEVDEDGKESAGGSA [r2_375_TrROS_Hall]”: the results for the “folding stability dG unfold” value in series [1], in series [2] and in series [3] were 2.3 ± 0.092 kcal/mol, 1.92 ± 0.098 kcal/mol and 2.17 ± 0.16 kcal/mol, respectively.
Take “SAGGSMKPAKKITFTFPDGRKAEIFFYPEEDTIELRIYFPETGTFVEIPVKSPEDLIETLKKLLAESAGGSA [r2_70_TrMRF]”: the “folding stability dG unfold” value in series [1] is 3.7 ± 0.14 kcal/mol; in series [2], 4.02 ± 0.16 kcal/mol; in series [3], 3.75 ± 0.16 kcal/mol.
“SAGGSMLFLRVRIEVRPPTAEDLAEGKEVKEVEILVEFDSVEELKEALEKLPPNAKVEVELVELEESAGGSA [r2_25_TrROS_Hall]”: the “folding stability dG unfold” value in series [1] was determined as 2.9 ± 0.17 kcal/mol; in series [2], 2.36 ± 0.26 kcal/mol; in series [3] it was 2.83 ± 0.53 kcal/mol.
For the sequence “SAGGSMLIKIKLPKNNPLRDKIVEKLKKSPYVKDVKVKRLKELPNYEIFLIEVDGDPKVADEIKKLASAGGS [r16_394_TrMRF]”, the “folding stability dG unfold” value turned out to be 3.08 ± 0.045 kcal/mol in series [1], 2.16 ± 0.09 kcal/mol in series [2] and 2.83 ± 0.15 kcal/mol in series [3].
Taken in the same sequence, the figures for “SAGGSMPLDVSSELLEESTDPSDPNRRTTLERRFSPDGTVTLVTRTFDPATGTTEVQETTLPPGLPSAGGSA [r2_73_JUSTAS]” were 1.49 ± 0.14 kcal/mol, 0.529 ± 0.06 kcal/mol and 1.14 ± 0.099 kcal/mol.
For “SAGGSMPLTLEIKAPASTPASEIVATLKKYGPVTVTLGDGRTYNIPRDKPPNLKGLPLAPDAVLTLVVSAGG [r13_399_JUSTAS]” the same measures were -0.742 ± 0.4 kcal/mol, -0.08 ± 0.1 kcal/mol and -0.263 ± 0.091 kcal/mol.
For the sequence “SAGGSMPTLKPDEILTLSSTTEPLPSGGLRGRTVTLKKIPGTGKFVTITKYSYQPPDGPITSATEILLSAGG [r13_263_JUSTAS]”, the “folding stability dG unfold” value in series [1] is 0.585 ± 0.26 kcal/mol; in series [2], -0.538 ± 0.48 kcal/mol; in series [3] it was 0.238 ± 0.15 kcal/mol.
Consider “SAGGSMPYKTLEESESEIYDPSNGNVKYKVKTETILLPDGTILVKETIYDPETGTTETKTYTIPKGSAGGSA [r2_13_JUSTAS]”, for which the “folding stability dG unfold” value amounted to 1.82 ± 0.13 kcal/mol in series [1], 1.54 ± 0.14 kcal/mol in series [2] and 1.79 ± 0.1 kcal/mol in series [3].
Take “SAGGSMRLVKITVTTLEPSAEAIAAGAPTPVTLIEREVSSEEEVEEFIKSLPPNVEVSVERLPPPASAGGSA [r2_25_JUSTAS]”: the entries for the “folding stability dG unfold” value in series [1], in series [2] and in series [3] were 2.16 ± 0.03 kcal/mol, 1.66 ± 0.11 kcal/mol and 2.04 ± 0.12 kcal/mol, respectively.
Taken in the same sequence, the figures for “SAGGSMSLEGVSTVSEEKFPEKPTTLVPLTYPDGTTVEANRTLDPVTGKWTLPVTTPDGTVVVVDESAGGSA [r2_490_JUSTAS]” were 0.487 ± 0.073 kcal/mol, 1.34 ± 0.048 kcal/mol and 0.977 ± 0.089 kcal/mol.
As to “SAGGSMSPWHWARHIAKKLRKKFPPGKKVRIKIEYDDGPVEFEIPPGEWIPIPSNAPIEILNIKVKSAGGSA [r2_391_TrROS]”, the “folding stability dG unfold” value was 2.36 ± 0.11 kcal/mol in series [1], 1.97 ± 0.034 kcal/mol in series [2] and 2.25 ± 0.11 kcal/mol in series [3].
As for “SAGGSMTIKINGAEITDIEVRDDGTIRIKVRVTNENGEEVEVTLEIRIEPAPPVEVVHPDDPEALESAGGSA [r2_368_TrROS_Hall]”, the “folding stability dG unfold” value in series [1] was 2.45 ± 0.066 kcal/mol; in series [2] it was 3.09 ± 0.16 kcal/mol; in series [3], 2.73 ± 0.097 kcal/mol.
For the sequence “SAGGSMTISLDETIDVPEDVGVTFTFADDTVATAYFDPSEGKVRVVVYDPNKPGTLLGEFTLPVLPSAGGSA [r2_266_TrMRF]”, the “folding stability dG unfold” value stood at 1.41 ± 0.07 kcal/mol in series [1], 0.976 ± 0.017 kcal/mol in series [2] and 1.29 ± 0.11 kcal/mol in series [3].
In the case of “SAGGSMTIVVETPEEVEKAIKALEDELKKKGIKKGDKIKKIKVEKNENGKLTVTIEVDGKKIKIEVSAGGSA [r2_120_TrROS_Hall]”, the “folding stability dG unfold” value in series [1] was determined as 2.02 ± 0.25 kcal/mol; in series [2], 0.37 ± 0.15 kcal/mol; in series [3], 1.63 ± 0.3 kcal/mol.
